Here are results for three molecules from US5444153, “Variants of PAI-2” (Biotech Australia Pty Limited, dated 1995).

Holding throughout (assay): incubation of the purified proteins; SDS-PAGE and western blot with anti-PAI-2
On the technique in general: Immunoblotting shows a protein as a band on a membrane.

The target of one experiment is u-PA (Behring) (Homo sapiens (Human), UniProt P00749).
Experiment [1] has as its target two chain t-PA (American Diagnostica) (Homo sapiens (Human), UniProt P00750).
In experiment [2] the target is single chain t-PA (American Diagnostica) (Homo sapiens (Human), UniProt P00750).

Positions count from the first letter of the chain named.

B1: PAI-2 deletion variant Δ74-96 (as expressed from pBTA829) (other)
chain: MEDLCVANTLFALNLFKHLAKASPTQNLFLSPWSISSTMAMVYMGSRGSTEDQMAKVLQFNEVGANAVTPMTPAQAADKIHSSFRSLSSAINASTGNYLLESVNKLFGEKSASFREEYIRLCQKYYSSEPQAVDFLECAEEARKKINSWVKTQTKGKIPNLLPEGSVDGDTRMVLVNAVYFKGKWKTPFEKKLNGLYPFRVNSAQRTPVQMMYLREKLNIGYIEDLKAQILELPYAGDVSMFLLLPDEIADVSTGLELLESEITYDKLNKWTSKDKMAEDEVEVYIPQFKLEEHYELRSILRSMGMEDAFNKGRANFSGMSERNDLFLSEVFHQAMVDVNEEGTEAAAGTGGVMTGRTGHGGPQFVADHPFLFLIMHKITNCILFFGRFSSP
In the case of B1, the binding result (with u-PA (Behring); in experiment [1]; in experiment [2]) was “binds” each time.

B2: native PAI-2 (as expressed from pBTA641) (other)
chain: MEDLCVANTLFALNLFKHLAKASPTQNLFLSPWSISSTMAMVYMGSRGSTEDQMAKVLQFNEVGANAVTPMTPENFTSCGFMQQIQKGSYPDAILQAQAADKIHSSFRSLSSAINASTGNYLLESVNKLFGEKSASFREEYIRLCQKYYSSEPQAVDFLECAEEARKKINSWVKTQTKGKIPNLLPEGSVDGDTRMVLVNAVYFKGKWKTPFEKKLNGLYPFRVNSAQRTPVQMMYLREKLNIGYIEDLKAQILELPYAGDVSMFLLLPDEIADVSTGLELLESEITYDKLNKWTSKDKMAEDEVEVYIPQFKLEEHYELRSILRSMGMEDAFNKGRANFSGMSERNDLFLSEVFHQAMVDVNEEGTEAAAGTGGVMTGRTGHGGPQFVADHPFLFLIMHKITNCILFFGRFSSP
In the case of B2, the binding result in experiment [1] and in experiment [2] was “binds” each time.

B3: second form of native PAI-2 (alternative native PAI-2, expressed from pBTA 683) (other)
chain: B2 chain with N120D, N404K, S413C
For the molecule B3, the binding result in experiment [1] and in experiment [2] was “binds” each time.
